Results on 87 variants are retold here after the RNAGym collection of RNA variant scans (doi:10.7554/elife.80360).

B1: HDV Ribozyme (parent)
chain: GGCCGGCAUGGUCCCAGCCUCCUCGCUGGCGCCGGCUGGGCAACAUUCCGAGGGGACCGUCCCCUCGGUAAUGGCGAAUGGGACCCA

Variants of B1 are the subject of this data set. Briefly: self-cleavage, relative activity (ratio to wild type); higher = more cleavage; co-transcriptional.
In the case of C13U G73C, the self-cleavage was 0.123.
For the variant G31A C66G, the self-cleavage worked out at 0.379.
With G55C G76U, the self-cleavage came out at 1.06.
With C30G G73C, the self-cleavage amounted to 0.0489.
On to C48U C49G, for which the self-cleavage was 0.982.
For U47G A77C, the self-cleavage stood at 0.35.
For the variant A16G A71U, the self-cleavage stood at 1.01.
For G73C G81A, the self-cleavage was found to be 0.0817.
Turning to U47G C63G, the self-cleavage worked out at 0.415.
Take A56C G81A: the self-cleavage is 0.415.
As for C19G U79G, the self-cleavage was 0.222.
C15U U69G: the self-cleavage came out at 0.858.
Take C49A A71C: the self-cleavage was 0.643.
Regarding A8U A42G, the self-cleavage was 0.111.
As to C4G G17A, the self-cleavage amounted to 0.0791.
Next, G28A U65C: 0.0415.
For the variant C21U G68C, the self-cleavage came out at 0.0875.
As for G29A G73C, the self-cleavage was 0.0639.
For C33A A70U, the self-cleavage was 0.458.
For C3G G53U, the self-cleavage was determined as 0.549.
Take U65A G73U: the self-cleavage came out at 0.217.
As to U20A G68C, the self-cleavage came out at 0.0978.
As to G54U C57A, the self-cleavage was found to be 0.997.
Take C61G A71U: the self-cleavage was 0.997.
For the variant G5U G52U, the self-cleavage was 0.277.
With G67C C75U the figure was 0.0545; with C7U G11U, 0.16; with C48A C62U, 1.05.
For U12A A42U, the self-cleavage is 0.119.
On to U9G G67A, for which the self-cleavage amounted to 0.88.
As for C13A C85A, the self-cleavage amounted to 0.19.
For the variant A51G A71G, the self-cleavage was found to be 0.752.
Take U20A C36A: the self-cleavage amounted to 0.135.
On to G39C U72A, for which the self-cleavage worked out at 0.0426.
U72A A78C: the self-cleavage is 0.125.
G34U G38U: the self-cleavage was found to be 0.248.
As for U9G U72G, the self-cleavage came to 0.776.
Next, G73C A87C: 0.592; G54A U69A: 0.982.
For the variant U65G A78C, the self-cleavage was determined as 0.119.
Next, G68C A78G: 0.426; C24A G28A: 0.208; C4A C36U: 0.
Take A70U G73C: the self-cleavage was determined as 0.332.
Consider C49G A51G, for which the self-cleavage worked out at 0.688.
For the variant G5A G59U, the self-cleavage was found to be 0.222.
With C26G A83G, the self-cleavage worked out at 0.851.
Take C15U A77C: the self-cleavage was 0.185.
Next, U23G C36U: 0.386; C18G U46C: 0.
For the variant G17U G39A, the self-cleavage came out at 0.128.
In the case of G38U G59C, the self-cleavage was determined as 0.264.
Turning to A8U C62U, the self-cleavage worked out at 0.989.
Take U9A C19U: the self-cleavage worked out at 0.113.
As for G1C C63A, the self-cleavage was found to be 0.201.
Next, G6U C62G: 0.332; G76A A77C: 0.657.
In the case of C3A C44A, the self-cleavage amounted to 0.103.
With U37G C48G the figure was 0.111; with C26U A77C, 0.883; with G1A G17U, 0.0449.
For G11A U60A, the self-cleavage came to 0.356.
As for A16G G81C, the self-cleavage is 0.369.
Turning to C58A C85U, the self-cleavage was 0.869.
Regarding C22U C84A, the self-cleavage came out at 0.408.
Take U12G G34A: the self-cleavage amounted to 0.0791.
With G5A G25U, the self-cleavage was determined as 0.0339.
Take G2C C15A: the self-cleavage stood at 0.0297.
Next, C24G G73C: 0.107.
With U23A C75U the figure was 0.346; with G35U C58G, 0.323; with G1C U69A, 0.0875.
As for G34C G53C, the self-cleavage turned out to be 0.0898.
For G6C U46C, the self-cleavage stood at 0.145.
A8C C62U: the self-cleavage was 0.918.
Turning to A43U G55A, the self-cleavage turned out to be 0.537.
With A43C U60G the figure was 0.68; with G10U G31U, 0.181.
Regarding G80C A87U, the self-cleavage is 0.177.
With A42U G81U, the self-cleavage came to 0.145.
With A8C C32G, the self-cleavage came out at 0.185.
For the variant G38U G52C, the self-cleavage amounted to 0.169.
Consider G40C C58U, for which the self-cleavage amounted to 0.354.
With C30A G74C, the self-cleavage turned out to be 0.158.
With U23G C48G the figure was 0.361; with G38A C62G, 0.298.
Next, G52U C64G: 0.902.
